{"source": "paper PMC2475608", "binders": {"B1": {"name": "EcoR124I HsdR subunit, wild type (enzyme)", "chain": "MTHQTHTIAESNNFIVLDKYIKAEPTGDSYQSESDLERELIQDLRNQGYEFISVKSQSAMLANVREQLQNLNGVVFNDSEWRRFTEQYLDNPSDGILDKTRKIHIDYICDFIFDDERLENIYLIDKKNLMRNKVQIIQQFEQAGSHANRYDVTILVNGLPLVQIELKKRGVAIREAFNQIHRYSKESFNSENSLFKYLQLFVISNGTDTRYFANTTKRDKNSFDFTMNWAKSDNTLIKDLKDFTATCFQKHTLLNVLVNYSVFDSSQTLLVMRPYQIAATERILWKIKSSFTAKNWSKPESGGYIWHTTGSGKTLTSFKAARLATELDFIDKVFFVVDRKDLDYQTMKEYQRFSPDSVNGSENTAGLKRNLDKDDNKIIVTTIQKLNNLMKAESDLPVYNQQVVFIFDECHRSQFGEAQKNLKKKFKRYYQFGFTGTPIFPENALGSETTASVFGRELHSYVITDAIRDEKVLKFKVDYNDVRPQFKSLETETDEKKLSAAENQQAFLHPMRIQEITQYILNNFRQKTHRTFPGSKGFNAMLAVSSVDAAKAYYATFKRLQEEAANKSATYKPLRIATIFSFAANEEQNAIGEISDETFDTSAMDSSAKEFLDAAIREYNSHFKTNFSTDSNGFQNYYRDLAQRVKNQDIDLLIVVGMFLTGFDAPTLNTLFVDKNLRYHGLMQAFSRTNRIYDATKTFGNIVTFRDLERSTIDAITLFGDKNTKNVVLEKSYTEYMEGFTDAATGEAKRGFMTVVSELEQRFPDPTSIESEKEKKDFVKLFGEYLRAENILQNYDEFATLKALQQIDLSDPVAVEKFKAEHYVDDEKFAELQTIRLPADRKIQDYRSAYNDIRDWQRREKEAEKKEKSTTDWDDVVFEVDLLKSQEINLDYILGLIFEHNRQNKGKGEMIEEVKRLIRSSLGNRAKEGLVVDFIQQTNLDDLPDKASIIDAFFTFAQREQQREAEALIKEENLNEDAAKRYIRTSLKREYATENGTELNETLPKLSPLNPQYKTKKQAVFQKIVSFIEKFKGVGGKI"}, "B2": {"name": "EcoR124I HsdR Q179K (enzyme)", "chain": "B1 chain with Q179K"}, "B3": {"name": "EcoR124I HsdR Y183F (enzyme)", "chain": "B1 chain with Y183F"}, "B4": {"name": "EcoR124I HsdR Y183A (enzyme)", "chain": "B1 chain with Y183A"}}, "molecular_target": "EcoR124I MTase (M2S1 complex) (UniProt P10484)", "sequence (P10484 whole entry, chain 1 of 2)": "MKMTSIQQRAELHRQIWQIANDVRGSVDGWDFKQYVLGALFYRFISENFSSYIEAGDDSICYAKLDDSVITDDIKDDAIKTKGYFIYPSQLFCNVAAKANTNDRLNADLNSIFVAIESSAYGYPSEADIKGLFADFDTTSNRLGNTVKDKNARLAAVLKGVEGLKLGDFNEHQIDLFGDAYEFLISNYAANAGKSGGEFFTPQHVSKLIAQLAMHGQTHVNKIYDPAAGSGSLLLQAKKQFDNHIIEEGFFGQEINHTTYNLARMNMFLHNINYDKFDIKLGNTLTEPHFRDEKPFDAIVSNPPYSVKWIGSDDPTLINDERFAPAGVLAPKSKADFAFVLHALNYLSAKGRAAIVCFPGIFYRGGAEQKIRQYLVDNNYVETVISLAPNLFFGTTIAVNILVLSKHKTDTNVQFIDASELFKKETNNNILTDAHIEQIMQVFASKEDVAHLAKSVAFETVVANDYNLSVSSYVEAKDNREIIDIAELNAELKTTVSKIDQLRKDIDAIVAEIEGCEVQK", "sequence (P10485 whole entry, chain 2 of 2, further chain)": "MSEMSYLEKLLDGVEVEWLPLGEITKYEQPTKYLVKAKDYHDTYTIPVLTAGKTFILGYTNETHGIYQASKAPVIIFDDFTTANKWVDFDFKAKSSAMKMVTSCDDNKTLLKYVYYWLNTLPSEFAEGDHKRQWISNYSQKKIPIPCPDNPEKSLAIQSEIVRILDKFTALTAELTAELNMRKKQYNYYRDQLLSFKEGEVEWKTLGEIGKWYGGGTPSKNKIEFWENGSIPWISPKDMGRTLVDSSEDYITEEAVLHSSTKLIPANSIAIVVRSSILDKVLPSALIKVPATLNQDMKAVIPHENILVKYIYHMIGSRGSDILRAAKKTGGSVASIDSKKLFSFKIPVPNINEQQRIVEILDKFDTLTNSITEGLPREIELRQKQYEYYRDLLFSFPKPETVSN", "experiment": "native gel or EMSA", "note": "Substitutions are numbered along the chain they refer to. Numbers in names are those of the source.", "data": [{"binder": "B1", "values": [{"measurement": "K1,app (first HsdR on the DNA-bound MTase, R1 complex)", "result": 15, "unit": "nM"}]}, {"binder": "B2", "values": [{"measurement": "K1,app (first HsdR on the DNA-bound MTase, R1 complex)", "result": 10, "unit": "nM"}]}, {"binder": "B3", "values": [{"measurement": "K1,app (first HsdR on the DNA-bound MTase, R1 complex)", "result": 14, "unit": "nM"}]}, {"binder": "B4", "values": [{"measurement": "K1,app (first HsdR on the DNA-bound MTase, R1 complex)", "result": 15, "unit": "nM"}]}]}
